FireProtDB (doi:10.1016/s0167-4838(99)00071-0)
Values joined by “and” are separate entries in the source; they are usually repeats but may differ in a detail not shown here. Equal values may be shown once.

Conditions: Saccharomyces cerevisiae (strain ATCC 204508 / S288c), Thermal, DSC, reversible: yes
[1] = pH 4.7, 51.4 °C, sodium acetate 50 mM, structure 1YCC
[2] = pH 4.7, sodium acetate 50 mM, structure 1YCC
[3] = pH 6, 57.1 °C, sodium phosphate 100 mM, structure 1YCC
[4] = pH 6, sodium phosphate 100 mM, structure 1YCC
[5] = pH 6, sodium phosphate 10 mM, structure 1YCC

Sequence of Cytochrome c isoform 1 T75E|C108T, P00044 T75E C108T (P00044 whole entry T75E/C108T, canonical isoform): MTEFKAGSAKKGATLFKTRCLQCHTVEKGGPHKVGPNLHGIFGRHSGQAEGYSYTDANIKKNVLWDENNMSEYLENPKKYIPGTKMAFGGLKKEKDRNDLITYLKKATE
Sequence of Cytochrome c isoform 1 wild type, P00044 (P00044 whole entry, canonical isoform): as the sequence (P00044 whole entry T75E/C108T, canonical isoform) above, with E75T, T108C counted along it
Sequence of Cytochrome c isoform 1 T102A|C108T, P00044 T102A C108T (P00044 whole entry T102A/C108T, canonical isoform): as the sequence (P00044 whole entry T75E/C108T, canonical isoform) above, with E75T, T102A counted along it
Sequence of Cytochrome c isoform 1 C108T, P00044 (P00044 whole entry C108T, canonical isoform): as the sequence (P00044 whole entry T75E/C108T, canonical isoform) above, with E75T counted along it
Sequence of Cytochrome c isoform 1 T75E|T102A|C108T, P00044 T75E T102A C108T (P00044 whole entry T75E/T102A/C108T, canonical isoform): as the sequence (P00044 whole entry T75E/C108T, canonical isoform) above, with T102A counted along it

Substance	unfolding enthalpy (calorimetric) [1]	heat capacity change of unfolding [2]	unfolding enthalpy (calorimetric) [2]	unfolding enthalpy (van 't Hoff) [2]	unfolding enthalpy (calorimetric) [3]	heat capacity change of unfolding [4]	unfolding enthalpy (calorimetric) [4]	unfolding enthalpy (van 't Hoff) [4]	heat capacity change of unfolding [5]	unfolding enthalpy (calorimetric) [5]	unfolding enthalpy (van 't Hoff) [5]	further results
Cytochrome c isoform 1 T75E|T102A|C108T, P00044 T75E T102A C108T	75 kcal/mol and 77 kcal/mol	1.7 kcal/mol/K	85 kcal/mol and 130 kcal/mol	102 kcal/mol and 169 kcal/mol	83 kcal/mol and 92 kcal/mol	1.7 kcal/mol/K	92 kcal/mol and 143 kcal/mol	120 kcal/mol and 157 kcal/mol	–	–	–	–
Cytochrome c isoform 1 C108T, P00044	65 kcal/mol and 68 kcal/mol	1.7 kcal/mol/K	69 kcal/mol and 116 kcal/mol	82.8 kcal/mol and 151 kcal/mol	81 kcal/mol and 75 kcal/mol	–	–	–	1.7 kcal/mol/K	86 kcal/mol and 122 kcal/mol	95 kcal/mol and 146 kcal/mol	–
Cytochrome c isoform 1 T75E|C108T, P00044 T75E C108T	80 kcal/mol	1.5 kcal/mol/K	89 kcal/mol and 125 kcal/mol	97.9 kcal/mol and 138 kcal/mol	90 kcal/mol and 91 kcal/mol	1.5 kcal/mol/K	135 kcal/mol	149 kcal/mol	1.5 kcal/mol/K	98 kcal/mol	108 kcal/mol	Tm [5]: 62.6 °C; Tm [4]: 86.3 °C
Cytochrome c isoform 1 wild type, P00044	–	–	–	–	–	–	–	–	–	–	–	unfolding enthalpy (calorimetric) (pH 4.7, 51.4 °C, sodium acetate 50 mM): 42 kcal/mol and 49 kcal/mol; heat capacity change of unfolding (pH 4.7, sodium acetate 50 mM): 1.4 kcal/mol/K; unfolding enthalpy (calorimetric) (pH 4.7, sodium acetate 50 mM): 40 kcal/mol; unfolding enthalpy (van 't Hoff) (pH 4.7, sodium acetate 50 mM): 52 kcal/mol; unfolding enthalpy (calorimetric) (pH 6, 57.1 °C, sodium phosphate 100 mM): 78 kcal/mol and 62 kcal/mol; Tm (pH 6, sodium phosphate 10 mM): 81.4 °C; heat capacity change of unfolding (pH 6, sodium phosphate 100 mM): 1.4 kcal/mol/K; unfolding enthalpy (calorimetric) (pH 6, sodium phosphate 100 mM): 78 kcal/mol and 98 kcal/mol; unfolding enthalpy (van 't Hoff) (pH 6, sodium phosphate 100 mM): 101 kcal/mol and 127 kcal/mol
Cytochrome c isoform 1 T102A|C108T, P00044 T102A C108T	78 kcal/mol and 67 kcal/mol	1.8 kcal/mol/K	84 kcal/mol and 121 kcal/mol	118 kcal/mol and 133 kcal/mol	84 kcal/mol	1.8 kcal/mol/K	91 kcal/mol and 144 kcal/mol	109 kcal/mol and 144 kcal/mol	–	–	–	–
